± gives the uncertainty stated by the source.
Assay: specific initial activity, cyclohex-2-enone reduction (U mg-1); higher = more active
Method: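 Specific initial activity of purified ene reductases with 10 mM cyclohex-2-enone and 0.2 mM NAD(P)H in 50 mM sodium phosphate pH 7.4 with 0-45% (v/v) ethanol or methanol, at set reaction temperatures of 25-45 °C. NAD(P)H depletion was followed at 340 nm for 480 s, in triplicate.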

MNPKYKPLFEPFTFKSGVTINNRIAVAPMTHYASNEDGTISEAELDYIIPRSKEMGMVITACANVTPDGKAFPGQPAIHDDSNIPGLKKLAQAIQAQGAKAVVQIHHGGIECPSELVPQQDVVGPSDVFDNGKQIARALTEEEVENIVKAFGEATRRAIEAGFDGVEIHGANGYLIQQFYSPKTNQRTDRWGGSDEKRLAFPLAIVDEVKKAASEHAKGAFLVGYRLSPEEPETPGLTMTETYTLVDALGDKELDYLHISLMDVNSKARRGADPTRTRMDLLNERVGNKVPLIAVGSIHSADDALAVIENGIPLVAMGREILVDPNWTVKVKEGREKQIETVIKGTDKEKYHLPEPLWQAIVNTQGWVPYKD
specific initial activity
Details | co-solvent: ethanol | co-solvent: methanol
co-solvent concentration (% v/v): 0, reaction temperature 25 °C | 0.8 ± 0.08 | 0.66 ± 0.01
co-solvent concentration (% v/v): 0, reaction temperature 30 °C | 0.56 ± 0.02 | 0.51 ± 0.07
co-solvent concentration (% v/v): 0, reaction temperature 35 °C | 0.24 ± 0.07 | 0.25 ± 0.04
co-solvent concentration (% v/v): 0, reaction temperature 40 °C | 0.15 ± 0.13 | 0.12 ± 0.12
co-solvent concentration (% v/v): 5, reaction temperature 25 °C | 0.77 ± 0.03 | 0.61 ± 0.02
co-solvent concentration (% v/v): 5, reaction temperature 30 °C | 0.66 ± 0.07 | 0.42 ± 0.05
co-solvent concentration (% v/v): 5, reaction temperature 35 °C | 0.27 | 0.2 ± 0.09
co-solvent concentration (% v/v): 5, reaction temperature 40 °C | 0.05 ± 0.02 | 0.09 ± 0.03
co-solvent concentration (% v/v): 10, reaction temperature 25 °C | 0.95 ± 0.13 | 0.69 ± 0.06
co-solvent concentration (% v/v): 10, reaction temperature 30 °C | 0.67 ± 0.02 | 0.41 ± 0.03
co-solvent concentration (% v/v): 10, reaction temperature 35 °C | 0.28 ± 0.02 | 0.14 ± 0.08
co-solvent concentration (% v/v): 10, reaction temperature 40 °C | 0.04 ± 0.05 | 0.04 ± 0.01
co-solvent concentration (% v/v): 15, reaction temperature 25 °C | 0.96 ± 0.05 | 0.65
co-solvent concentration (% v/v): 15, reaction temperature 30 °C | 0.85 ± 0.11 | 0.43 ± 0.06
co-solvent concentration (% v/v): 15, reaction temperature 35 °C | 0.21 ± 0.04 | 0.1 ± 0.07
co-solvent concentration (% v/v): 15, reaction temperature 40 °C | 0.03 ± 0.01 | 0.02 ± 0.01
co-solvent concentration (% v/v): 20, reaction temperature 25 °C | 0.99 ± 0.04 | 0.66 ± 0.05
co-solvent concentration (% v/v): 20, reaction temperature 30 °C | 0.75 ± 0.02 | –
co-solvent concentration (% v/v): 20, reaction temperature 35 °C | 0.17 ± 0.03 | –
co-solvent concentration (% v/v): 20, reaction temperature 40 °C | 0.03 ± 0.01 | –
co-solvent concentration (% v/v): 25, reaction temperature 25 °C | 0.88 ± 0.02 | –
co-solvent concentration (% v/v): 25, reaction temperature 30 °C | 0.63 ± 0.08 | –
co-solvent concentration (% v/v): 25, reaction temperature 35 °C | 0.08 ± 0.02 | –
co-solvent concentration (% v/v): 25, reaction temperature 40 °C | 0.03 ± 0.02 | –
co-solvent concentration (% v/v): 30, reaction temperature 25 °C | 0.63 ± 0.02 | –
co-solvent concentration (% v/v): 30, reaction temperature 30 °C | 0.44 ± 0.03 | –
co-solvent concentration (% v/v): 30, reaction temperature 35 °C | 0.04 | –
co-solvent concentration (% v/v): 30, reaction temperature 40 °C | 0.04 ± 0.02 | –
co-solvent concentration (% v/v): 35, reaction temperature 25 °C | 0.45 ± 0.03 | –
co-solvent concentration (% v/v): 35, reaction temperature 30 °C | 0.25 ± 0.05 | –
co-solvent concentration (% v/v): 35, reaction temperature 35 °C | 0.02 ± 0.01 | –
co-solvent concentration (% v/v): 35, reaction temperature 40 °C | 0.04 ± 0.01 | –
co-solvent concentration (% v/v): 40, reaction temperature 25 °C | 0.23 ± 0.04 | –
co-solvent concentration (% v/v): 40, reaction temperature 30 °C | 0.1 ± 0.01 | –
co-solvent concentration (% v/v): 40, reaction temperature 35 °C | 0.04 ± 0.01 | –
co-solvent concentration (% v/v): 40, reaction temperature 40 °C | 0.02 ± 0.05 | –
co-solvent concentration (% v/v): 45, reaction temperature 25 °C | 0.11 ± 0.02 | –
co-solvent concentration (% v/v): 45, reaction temperature 30 °C | 0.06 ± 0.01 | –
co-solvent concentration (% v/v): 45, reaction temperature 35 °C | 0 ± 0.01 | –
co-solvent concentration (% v/v): 45, reaction temperature 40 °C | 0.04 ± 0.03 | –

— the supplement of paper PMC11208486
